The results in this text go back to PMC11912937 (The Journal of Cell Biology, 2025).

What all share (conditions): both partners purified
In experiment [1] the target is T1, ^MBPCENP-C^EGFP (a full-length CENP-C construct) (human, UniProt Q03188 1-943).
T1 construct: CENP-C; also called ^His-MBPCENP-C^EGFP; source: Tnao38 insect cells (baculovirus), purified (TALON, heparin, SEC); not shown: MBP, N-terminal, kept; EGFP, C-terminal, kept
The experiment can be described thus: pull-down; amylose resin, MBP-CENP-C fusion proteins (fragments or full-length ^MBPCENP-C^EGFP) as baits, FACT or FACT constructs as preys; 3 µM each; 20 mM Hepes pH 6.8, 300 mM NaCl, 2.5% glycerol, 1 mM TCEP, 0.01% Tween; 4°C.

Experiment [2] deals with T2, ^GSTCENP-OPQUR (CENP-OPQUR with CENP-U fused to an N-terminal GST) (human, UniProt Q9BU64 1-300; Q6IPU0 1-288; Q7L2Z9 1-268; Q71F23 1-418; Q13352 1-177).
T2 construct: CENP-O; CENP-P; CENP-Q; CENP-U; CENP-R; also called GST-tagged CENP-OPQUR; not shown: GST, N-terminal, kept; copies: + + + +
The experiment can be described thus: pull-down; glutathione-agarose, CENP-OPQUR with GST on CENP-U as bait, FACT constructs as preys; 3 µM each; 20 mM Hepes pH 6.8, 300 mM NaCl, 2.5% glycerol, 1 mM TCEP, 0.01% Tween; 4°C.

Experiment [3] addresses T3, CCAN, 16-subunit constitutive centromere-associated network reconstituted with CENP-C^2–545 (human, UniProt Q03188 2-545; Q9H3R5 1-247; Q92674 1-756; Q9BS16 1-269; Q9NSP4 1-180; Q8N0S6 …).
T3 construct: CENP-H; CENP-I; CENP-K; CENP-M; CENP-L; CENP-N; CENP-O; CENP-P; CENP-Q; CENP-U; CENP-R; CENP-T; CENP-W; CENP-S; CENP-X; source: recombinant subcomplexes expressed and purified as previously reported, mixed to reconstitute CCAN; copies: + + + + + + + + + + + + + + +
The experiment in a line: pull-down; amylose resin, MBP-tagged FACT (untreated, dephosphorylated, kinase-treated or truncated) as bait, CCAN or CCAN subcomplexes as preys; 3 µM each; 20 mM Hepes pH 6.8, 300 mM NaCl, 2.5% glycerol, 1 mM TCEP, 0.01% Tween; 4°C; SDS-PAGE, Coomassie.

For experiment [4], the target named is T4, FACT complex (SPT16/SSRP1), full length, untreated (human, UniProt Q9Y5B9 1-1047; Q08945 1-709, phosphorylated as purified from insect cells; residues not printed | phosphorylated as purified from insect cells; residues not given).
T4 construct: SPT16, FACT subunit; SSRP1, FACT subunit; His tags are followed by a TEV site; cleavage is not described; also called FAcilitates Chromatin Transcription complex; full-length FACT; source: Tnao38 insect cells (baculovirus), purified (HisTrap, HiTrap Q, SEC)
The experiment can be described thus: pull-down; amylose resin, MBP-CENP-C fusion proteins (fragments or full-length ^MBPCENP-C^EGFP) as baits, FACT or FACT constructs as preys; 3 µM each; 20 mM Hepes pH 6.8, 300 mM NaCl, 2.5% glycerol, 1 mM TCEP, 0.01% Tween; 4°C.

T4 sequence (Q9Y5B9 whole entry, one chain of several): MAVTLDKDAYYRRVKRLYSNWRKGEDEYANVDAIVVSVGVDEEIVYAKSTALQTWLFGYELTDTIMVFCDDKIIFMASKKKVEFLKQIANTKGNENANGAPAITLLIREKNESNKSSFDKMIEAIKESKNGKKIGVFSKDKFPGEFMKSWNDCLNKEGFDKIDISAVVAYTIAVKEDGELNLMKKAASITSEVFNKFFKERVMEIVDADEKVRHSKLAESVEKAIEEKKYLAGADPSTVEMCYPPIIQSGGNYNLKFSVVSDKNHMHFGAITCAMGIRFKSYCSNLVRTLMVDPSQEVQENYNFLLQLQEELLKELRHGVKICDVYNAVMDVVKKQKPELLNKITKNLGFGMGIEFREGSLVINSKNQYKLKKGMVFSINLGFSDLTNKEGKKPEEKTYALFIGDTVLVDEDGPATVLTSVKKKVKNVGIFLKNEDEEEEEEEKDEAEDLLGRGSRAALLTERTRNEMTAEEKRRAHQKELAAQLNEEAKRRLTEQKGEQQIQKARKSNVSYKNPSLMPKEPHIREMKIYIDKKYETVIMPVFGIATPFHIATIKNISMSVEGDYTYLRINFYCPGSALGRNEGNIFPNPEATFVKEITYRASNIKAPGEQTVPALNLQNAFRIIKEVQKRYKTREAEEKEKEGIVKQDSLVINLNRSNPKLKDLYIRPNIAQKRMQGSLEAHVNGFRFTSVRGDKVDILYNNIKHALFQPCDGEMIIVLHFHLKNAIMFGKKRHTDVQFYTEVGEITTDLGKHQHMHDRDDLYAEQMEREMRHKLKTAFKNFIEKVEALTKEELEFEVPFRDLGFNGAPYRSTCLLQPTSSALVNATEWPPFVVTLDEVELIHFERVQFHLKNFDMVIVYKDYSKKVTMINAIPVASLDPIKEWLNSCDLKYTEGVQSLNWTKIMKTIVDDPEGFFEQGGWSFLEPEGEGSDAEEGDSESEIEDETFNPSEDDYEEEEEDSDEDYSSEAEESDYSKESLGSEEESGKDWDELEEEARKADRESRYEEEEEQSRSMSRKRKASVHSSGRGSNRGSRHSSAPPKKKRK
T1 sequence (Q03188 whole entry): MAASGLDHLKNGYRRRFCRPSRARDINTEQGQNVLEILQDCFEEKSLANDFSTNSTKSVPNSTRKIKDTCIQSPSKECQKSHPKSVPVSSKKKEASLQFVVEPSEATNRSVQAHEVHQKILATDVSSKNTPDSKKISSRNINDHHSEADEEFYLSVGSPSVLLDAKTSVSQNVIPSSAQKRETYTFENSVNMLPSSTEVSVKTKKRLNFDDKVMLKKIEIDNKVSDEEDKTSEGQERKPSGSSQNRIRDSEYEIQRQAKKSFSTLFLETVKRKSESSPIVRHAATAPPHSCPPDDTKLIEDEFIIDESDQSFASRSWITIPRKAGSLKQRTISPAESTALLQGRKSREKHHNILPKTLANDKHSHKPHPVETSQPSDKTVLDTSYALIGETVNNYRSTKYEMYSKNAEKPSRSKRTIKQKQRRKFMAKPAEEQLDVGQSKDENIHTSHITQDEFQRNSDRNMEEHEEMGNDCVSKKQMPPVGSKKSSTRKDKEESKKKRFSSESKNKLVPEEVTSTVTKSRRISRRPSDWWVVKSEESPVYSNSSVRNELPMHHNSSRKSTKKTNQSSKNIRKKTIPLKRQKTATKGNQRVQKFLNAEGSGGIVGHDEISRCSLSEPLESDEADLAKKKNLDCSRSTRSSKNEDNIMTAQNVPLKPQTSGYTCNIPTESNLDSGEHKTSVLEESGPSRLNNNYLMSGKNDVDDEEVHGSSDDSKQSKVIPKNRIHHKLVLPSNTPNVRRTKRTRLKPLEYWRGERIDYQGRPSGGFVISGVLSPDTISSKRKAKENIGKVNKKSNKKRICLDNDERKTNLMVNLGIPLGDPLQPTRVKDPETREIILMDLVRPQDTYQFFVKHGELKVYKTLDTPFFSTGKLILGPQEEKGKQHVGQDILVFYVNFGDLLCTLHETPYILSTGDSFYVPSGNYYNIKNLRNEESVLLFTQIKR

B1: SPT16^Mid-AID (SPT16^644–988) (domain or fragment, human, UniProt Q9Y5B9 644-988, looked up)
chain: GIVKQDSLVINLNRSNPKLKDLYIRPNIAQKRMQGSLEAHVNGFRFTSVRGDKVDILYNNIKHALFQPCDGEMIIVLHFHLKNAIMFGKKRHTDVQFYTEVGEITTDLGKHQHMHDRDDLYAEQMEREMRHKLKTAFKNFIEKVEALTKEELEFEVPFRDLGFNGAPYRSTCLLQPTSSALVNATEWPPFVVTLDEVELIHFERVQFHLKNFDMVIVYKDYSKKVTMINAIPVASLDPIKEWLNSCDLKYTEGVQSLNWTKIMKTIVDDPEGFFEQGGWSFLEPEGEGSDAEEGDSESEIEDETFNPSEDDYEEEEEDSDEDYSSEAEESDYSKESLGSEEESGK
notes: SPT16, Mid domain and AID segment, residues 644-988; also called construct 3; source: Tnao38 insect cells (baculovirus), purified (HisTrap, HiTrap Q, SEC)
As for B1, the binding result in experiment [1] was “binds”.

B2: FACT^trunc (SPT16^508–988/SSRP1^1–514) (complex, human)
chain 1: SNVSYKNPSLMPKEPHIREMKIYIDKKYETVIMPVFGIATPFHIATIKNISMSVEGDYTYLRINFYCPGSALGRNEGNIFPNPEATFVKEITYRASNIKAPGEQTVPALNLQNAFRIIKEVQKRYKTREAEEKEKEGIVKQDSLVINLNRSNPKLKDLYIRPNIAQKRMQGSLEAHVNGFRFTSVRGDKVDILYNNIKHALFQPCDGEMIIVLHFHLKNAIMFGKKRHTDVQFYTEVGEITTDLGKHQHMHDRDDLYAEQMEREMRHKLKTAFKNFIEKVEALTKEELEFEVPFRDLGFNGAPYRSTCLLQPTSSALVNATEWPPFVVTLDEVELIHFERVQFHLKNFDMVIVYKDYSKKVTMINAIPVASLDPIKEWLNSCDLKYTEGVQSLNWTKIMKTIVDDPEGFFEQGGWSFLEPEGEGSDAEEGDSESEIEDETFNPSEDDYEEEEEDSDEDYSSEAEESDYSKESLGSEEESGK
chain 2: MAETLEFNDVYQEVKGSMNDGRLRLSRQGIIFKNSKTGKVDNIQAGELTEGIWRRVALGHGLKLLTKNGHVYKYDGFRESEFEKLSDFFKTHYRLELMEKDLCVKGWNWGTVKFGGQLLSFDIGDQPVFEIPLSNVSQCTTGKNEVTLEFHQNDDAEVSLMEVRFYVPPTQEDGVDPVEAFAQNVLSKADVIQATGDAICIFRELQCLTPRGRYDIRIYPTFLHLHGKTFDYKIPYTTVLRLFLLPHKDQRQMFFVISLDPPIKQGQTRYHFLILLFSKDEDISLTLNMNEEEVEKRFEGRLTKNMSGSLYEMVSRVMKALVNRKITVPGNFQGHSGAQCITCSYKASSGLLYPLERGFIYVHKPPVHIRFDEISFVNFARGTTTTRSFDFEIETKQGTQYTFSSIEREEYGKLFDFVNAKKLNIKNRGLKEGMNPSYDEYADSDEDQHDAYLERMKEEGKIREENANDSSDDSGEETDESFNPGEEEEDVAEEFDSNASASSSSNEGDSDRDE
notes: SPT16, residues 508-988; SSRP1, residues 1-514; also called construct 2; source: Tnao38 insect cells (baculovirus), purified (HisTrap, HiTrap Q, SEC)
B2: in experiment [2], the binding result was “binds”.

B3: ^MBPFACT^trunc (MBP-TEV-SPT16^508–988 + His-TEV-SSRP1^1–514) (complex, human)
chain 1: SNVSYKNPSLMPKEPHIREMKIYIDKKYETVIMPVFGIATPFHIATIKNISMSVEGDYTYLRINFYCPGSALGRNEGNIFPNPEATFVKEITYRASNIKAPGEQTVPALNLQNAFRIIKEVQKRYKTREAEEKEKEGIVKQDSLVINLNRSNPKLKDLYIRPNIAQKRMQGSLEAHVNGFRFTSVRGDKVDILYNNIKHALFQPCDGEMIIVLHFHLKNAIMFGKKRHTDVQFYTEVGEITTDLGKHQHMHDRDDLYAEQMEREMRHKLKTAFKNFIEKVEALTKEELEFEVPFRDLGFNGAPYRSTCLLQPTSSALVNATEWPPFVVTLDEVELIHFERVQFHLKNFDMVIVYKDYSKKVTMINAIPVASLDPIKEWLNSCDLKYTEGVQSLNWTKIMKTIVDDPEGFFEQGGWSFLEPEGEGSDAEEGDSESEIEDETFNPSEDDYEEEEEDSDEDYSSEAEESDYSKESLGSEEESGK
chain 2: MAETLEFNDVYQEVKGSMNDGRLRLSRQGIIFKNSKTGKVDNIQAGELTEGIWRRVALGHGLKLLTKNGHVYKYDGFRESEFEKLSDFFKTHYRLELMEKDLCVKGWNWGTVKFGGQLLSFDIGDQPVFEIPLSNVSQCTTGKNEVTLEFHQNDDAEVSLMEVRFYVPPTQEDGVDPVEAFAQNVLSKADVIQATGDAICIFRELQCLTPRGRYDIRIYPTFLHLHGKTFDYKIPYTTVLRLFLLPHKDQRQMFFVISLDPPIKQGQTRYHFLILLFSKDEDISLTLNMNEEEVEKRFEGRLTKNMSGSLYEMVSRVMKALVNRKITVPGNFQGHSGAQCITCSYKASSGLLYPLERGFIYVHKPPVHIRFDEISFVNFARGTTTTRSFDFEIETKQGTQYTFSSIEREEYGKLFDFVNAKKLNIKNRGLKEGMNPSYDEYADSDEDQHDAYLERMKEEGKIREENANDSSDDSGEETDESFNPGEEEEDVAEEFDSNASASSSSNEGDSDRDE
notes: SPT16, residues 508-988; SSRP1, residues 1-514; also called construct 2 with an N-terminal MBP fusion on SPT16; source: Tnao38 insect cells (baculovirus), purified (HisTrap, HiTrap Q, SEC); not shown: MBP, N-terminal, kept
On to B3, for which the binding result in experiment [3] is recorded as “binds”.

B4: ^MBPCENP-C^546–600-His (domain or fragment, human, UniProt Q03188 546-600, looked up)
chain: VRNELPMHHNSSRKSTKKTNQSSKNIRKKTIPLKRQKTATKGNQRVQKFLNAEGS
notes: CENP-C, residues 546-600; not shown: MBP, N-terminal, kept
B4: the binding result in experiment [4] is listed as “binds”.

B5: ^MBPCENP-C^721–759-His (domain or fragment, human, UniProt Q03188 721-759, looked up)
chain: KNRIHHKLVLPSNTPNVRRTKRTRLKPLEYWRGERIDYQ
notes: CENP-C, residues 721-759; not shown: MBP, N-terminal, kept
B5: in experiment [4], the binding result is recorded as “binds”.
